# Variants at the floor of the assay were thinned out.
# B1: TPR 5TU (parent)
# chain: GGAUCUUCUCGAUCUAACAAAAAAGACAAAUCUGCCACAAAGCUUGAGAGCAUCUUCGGAUGCAGAGGCGGCAGCCUUCGGUGGCGCGAUAGCGCCAACGUUCUCAACUAUGACACGCAAAACGCGUGCUCCGUUGAAUGGAGUUUAUCAUG
# Variants of: B1
# Experiment: polymerase ribozyme fitness, log enrichment relative to wild type (log ratio); higher = more active; in vitro selection for triplet polymerase activity
# Outline: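 Libraries of mutants in each subunit of a heterodimeric triplet polymerase ribozyme were generated by PCR and transcribed. In triplicate, each went through one in vitro selection round: annealing with biotinylated primer, partner subunit and triplets; frozen incubation at −7 °C; gel excision of extended constructs; streptavidin-bead capture; RT-PCR. Fitness, taken from Illumina sequencing of input and output libraries, is the logarithm of a genotype's enrichment over wild-type enrichment, averaged across replicates with inverse-variance weights. The logarithm is base 2, and genotypes needed ≥10 input reads and ≥1 read per output to be kept.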
row,Variant,polymerase ribozyme fitness (log ratio)
1,G11U G34A G50A C85U U90C G143A,≤ -4.2
2,G11A C43U C54U A106U C108G G112A,≤ -4.2
3,G11A G50U U82C G86A C116A,-3.47
4,G11U U56A C79G C87G C96U A142G,≤ -4.2
5,A12C,0.0783
6,C10U A22U C79A G83C A106U,≤ -4.2
7,G11C G46A G58A G83A,-3.26
8,G11U A23U C57U G86A,≤ -4.2
9,G11A G94U A113C C114U A122C G143U C149U,≤ -4.2
10,A12C A26C G92C,-3.66
11,G11C G46C G59C G92U,-3.55
12,G11C A23G A91G C95U A121G,-3.82
13,G11U U53A G65A A73U G83C U144A,≤ -4.2
14,A12C A98G,-0.18
15,C10U U13C A17U C76A C105U,≤ -4.2
16,G11A A41U A52U U55A C118U,≤ -4.2
17,G11C G25C A28G C36G C75U C96U A115U A122U,-3.98
18,G11C A28G U56A U77A C87A A122U,≤ -4.2
19,G11U U53G C57G G59U G94A,-3.74
20,G11A C14G A30U U44A U45A G92U,≤ -4.2
21,G11A A21U C85U,-1.32
22,C10U A91U C96A A98U A142G U151C,≤ -4.2
23,G11U U90A A119U G133C,≤ -4.2
24,A12C A30U A37U A49U C57U U90G A91U A107U,≤ -4.2

row,Variant,polymerase ribozyme fitness (log ratio)
1,G11C U61A G67A G94C U145G A147U,≤ -4.2
2,G11A A24G A60U U78C G92A G100A,≤ -4.2
3,C10U C69U A147C U148G C149G,≤ -4.2
4,A12C A64G C85A G100C,≤ -4.2
5,C10U C32U A49C U134C,≤ -4.2
6,C10U C36U C63A C118U,≤ -4.2
7,G11A A91G,-3.81
8,G11A C32U G71A A137G A138G,≤ -4.2
9,C10U C54A G88U A115G,≤ -4.2
10,C10U G42C C69A C95G A142G A150G,≤ -4.2
11,C10U C51G A52U C87A C123U G141C,≤ -4.2
12,A12C A21G C51U G83U,-2.15
13,G11A A19U U56G U82C G84U C95U,≤ -4.2
14,G11U A41U C93U C99A U104G C118U G140U G152U,-4.02
15,G11U G25C G71C C95G C103A C116G,≤ -4.2
16,G11A A28U C32U A47U C79A,≤ -4.2
17,G11A C125U U139G,-2.67
18,G11U C27U A29C C75U G83C G126U,≤ -4.2
19,C10U U13G U45A G46A G58C C63U G141U,≤ -4.2
20,G11A G48C G92U,-0.981
21,C10U U53A,-2.96
22,G11C C75U,-1.85
23,G11U A26U U61G G84U C85A C96A U139A,≤ -4.2
24,C10U G11U A30U C76A A119U A120C A137U,≤ -4.2

row,Variant,polymerase ribozyme fitness (log ratio)
1,C10U A52C C87U G88A A122U C123G,≤ -4.2
2,C10U G11A A19U U55A C75G G83U,≤ -4.2
3,C10U G84A U101A A115U A121G G124A,≤ -4.2
4,G11C G50U G84U A97G,-3.09
5,G11A A12G C38U A41U C69U G83U,-3.51
6,A12C A21U U53A G59C A60G G84A,-0.862
7,G11U G48C C79A C93G A119G G141U,≤ -4.2
8,G11C A12U C14A A28G A52C G62C U78A G112C,≤ -4.2
9,G11U G86C,-3.55
10,G11A U15G A107G G141C U144C U145A G152A,≤ -4.2
11,G11U C93U A115G,-2.88
12,A12C A40G A41U A52C C54U A66G C95U,≤ -4.2
13,G11A C14U U33G U44A C69A C79A C85U A97U,≤ -4.2
14,G11C C18G A23C G48A G88U C93G U144A,≤ -4.2
15,G11U G34A G88A G124A,≤ -4.2
16,G11U C93U A119C C149U,-3.06
17,C10U U45A C54A G71C G136U,≤ -4.2
18,A12C A30G,-3.77
19,A12C A21U A64C G84U U127C A138U,≤ -4.2
20,G11C A40C G83U A119G,-2.65
21,C10U G42C G88U C105G G143U,≤ -4.2
22,A12C A16U C87G,≤ -4.2
23,G11C C63U C85U G86U C114U,≤ -4.2
24,C10U U13G C27A U33A C75G G88A A122U,≤ -4.2

row,Variant,polymerase ribozyme fitness (log ratio)
1,C10U A22U A29G U53G C75A G83A A106U A150C,≤ -4.2
2,C10U C103G C132U,≤ -4.2
3,A12C C14G A26U A49C G59A C131A,≤ -4.2
4,G11A C14G A66U C87A A106U G143C,≤ -4.2
5,G11C C35U A52C A60G,≤ -4.2
6,A12C C14A A29G G81A A91G C93U C103A,≤ -4.2
7,G11C A22U A30G A37C A91G C93A A98C C118G,≤ -4.2
8,G11A U15G G46A A47G A60G G92C C96A,≤ -4.2
9,G11C A40C G42A G58U A60U C85G A89U C93G,≤ -4.2
10,A12C A20C U53A C76A U151G,≤ -4.2
11,G11C C105U C118G,-1.92
12,G11A A21C A24C C43U C85A U111C,≤ -4.2
13,G11C A37C U55G C93A C99G G124U C149U,≤ -4.2
14,C10U A19U A23U C57U G58C C75U U78G C95U C105U,≤ -4.2
15,G11C A66U C96A C108G,≤ -4.2
16,C10U A19C U45G C72G U90C U135G,≤ -4.2
17,G11C C51U C85U G140C,≤ -4.2
18,G11C A29G A40U C76U C87U,≤ -4.2
19,G11C G59A A73G U82G,-2.2
20,G11A C69U C87U G92C A150G,-2.89
21,G11C G42U U55G C76U,≤ -4.2
22,G11A A39G C54G C87U C96G,≤ -4.2
23,G11A A60G A106G,-0.626
24,A12C A41C C54U G94U A121G G140C,≤ -4.2

row,Variant,polymerase ribozyme fitness (log ratio)
1,G11A A64G G88U U101G C103G U146G,≤ -4.2
2,G11U C54U U77G G92U U145A A147U,≤ -4.2
3,G11A A21U C51U U53A U55G C57U C96A A110C,≤ -4.2
4,G11A G25C G50A A52G C75G U90G C103U U144A,≤ -4.2
5,C10U C38U G80A G94C C125A G143A,≤ -4.2
6,G11U A52U,-2.33
7,G11C C36U C57A G100A,≤ -4.2
8,G11A G141U,0.246
9,G11U A73U G81A G83C G86U G126C G136C,≤ -4.2
10,C10U C14U A17C U56A U134A A137U U151C,≤ -4.2
11,G11U G46A C85U,-2.44
12,G11C G48A A52G C96U A113G C118U G141U A142C U151G,≤ -4.2
13,G11A G92U,-1.16
14,G11U A40U G42C G84C G100U A107U U134G,≤ -4.2
15,G11A G67A C79G C87A C114G A137G,≤ -4.2
16,C10U G50U C95U,-3.16
17,C10U A29U G92A C99A U145C,≤ -4.2
18,G11C U148G,≤ -4.2
19,G11U C96G,-1.31
20,G11C C14U A37C C93U,≤ -4.2
21,C10U C85G,-3.57
22,C10U C85A,-3.35
23,G11A A40G A49C U61A G81A C125A,≤ -4.2
24,G11C G62A C87G,≤ -4.2

row,Variant,polymerase ribozyme fitness (log ratio)
1,C10U A40G C105G,≤ -4.2
2,C10U G88U,≤ -4.2
3,G11A U134A,-3.6
4,C10U G50A U55G A91G G143C,≤ -4.2
5,G11A C54U U61A C95A C149G,≤ -4.2
6,C10U A24U C35U A91G C93G A98C C118U,≤ -4.2
7,G11A C14G A19U C27A U31C C118G,≤ -4.2
8,C10U U45A C99A,≤ -4.2
9,G11A C114G G124U,-4.03
10,G11C C87U,-2.7
11,G11A U15G A17C A20U U33C A64G C93G A110G A147U,≤ -4.2
12,G11C G50A G92U G143A,-4.01
13,G11U G94A A98C,-1.81
14,G11A A17C A49C C85U A91U G136U,≤ -4.2
15,A12C A29U A66G U101G C131G,≤ -4.2
16,C10U G74C G88C A110G,≤ -4.2
17,G11A U104A A119U G136A U144A,-2.19
18,G11U A37U C87A,-4.14
19,C10U U13C A37C G70A C79A G84A A107C,≤ -4.2
20,G11U A19U C32U U33C G74A C85U G141U C149A,≤ -4.2
21,A12C C14U A22C U61G G65A G86A C93U U134G,≤ -4.2
22,G11A C51U U55A U56G A142C,-3.56
23,G11U C57G A119U A121G C149U,-2.88
24,G11A A37C U56G G83A U145G,-3.73

row,Variant,polymerase ribozyme fitness (log ratio)
1,C10U C14U A19C U55A G59U A97U C105A A115U G141U U148C,≤ -4.2
2,G11C C116G,-0.794
3,C10U U33G C38G U44G A52G C87U C108U C118U,≤ -4.2
4,A12C A19U U31G A41C C93A G141A,-3.98
5,G11A A19U U61A G84C C85A C103G,≤ -4.2
6,G11C C14G C93U C125A,≤ -4.2
7,G11A C38U G59C A64U G81A C93U G94C,≤ -4.2
8,G11C A20U C36U A60G C93G,≤ -4.2
9,C10U C51G U53A U90G,≤ -4.2
10,C10U A26U C35U C54U A60C C95A C99U C103G A142U,≤ -4.2
11,C10U U15A A23U C32A C51U U55G U111G,≤ -4.2
12,C10U G42C G83U A97G G124U G133C,≤ -4.2
13,G11A U31A,-0.715
14,C10U U13G C35U G50U G59C A60U C85A G94C G141A,≤ -4.2
15,G11C C57U C95U U127A C149A,≤ -4.2
16,C10U A41G A64G G65C A91C,≤ -4.2
17,C10U C32G U145C,-4.16
18,C10U A22C G46A G50A C79G C85U C105U,≤ -4.2
19,A12C A22G C32G C51G A60U U77A G81C G128A U148C,≤ -4.2
20,G11A C27A A37C G59C G83A G86A G92A U102G G117U,≤ -4.2
21,G11U A17C A37U A121U A122U,-3.25
22,A12C A20U U53C A89G,-3.96
23,G11U G74U G81U G88C A89G C95U G128U U148A,≤ -4.2

# Reference: the RNAGym collection of RNA variant scans (doi:10.1073/pnas.2313332121)
